Reference: publication PMC3448684, “IP-FCM Measures Physiologic Protein-Protein Interactions Modulated by Signal Transduction and Small-Molecule Drug Inhibition” (PLoS ONE, 2012)

What was measured:
IL-2 = target: T1, IL-2 (Homo sapiens, UniProt P60568, C145S); experiment: IP-FCM bead assay of the IL-2:CD25 interaction with recombinant proteins (also with endogenous CD25 captured from PBMC lysate); type: biochemical
T1 construct: gene IL2; recombinant human IL-2 (Proleukin); with CD25 (IL-2 receptor α-chain; recombinant human CD25-Fc chimera, or endogenous CD25 from PBMC lysate)

[1] = target: recombinant human CD25-Fc chimera (human) (UniProt P01589); experiment: IP-FCM (capture on antibody beads, detection by flow cytometry); data not shown: as a4 with recombinant CD25, but 500 U/ml or 10,000 U/ml IL-2
[2] = target: recombinant human CD25-Fc chimera (human) (UniProt P01589); experiment: IP-FCM (capture on antibody beads, detection by flow cytometry); CD25-Fc captured on anti-CD25 CML beads overnight, washed; IL-2 (1,000 U/ml) added for 1 h with or without Ro-26-4550 or control compounds; washed, probed with anti-IL-2

Chain of recombinant human CD25-Fc chimera (human) (P01589 22-240, change not shown): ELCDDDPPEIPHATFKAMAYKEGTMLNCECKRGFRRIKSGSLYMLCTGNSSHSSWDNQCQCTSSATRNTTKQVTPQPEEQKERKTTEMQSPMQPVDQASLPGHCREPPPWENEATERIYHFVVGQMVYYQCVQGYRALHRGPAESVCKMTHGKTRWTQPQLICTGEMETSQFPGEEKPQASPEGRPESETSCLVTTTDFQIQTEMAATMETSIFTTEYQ
Chain of recombinant human IL-2 (Proleukin) (P60568 21-153): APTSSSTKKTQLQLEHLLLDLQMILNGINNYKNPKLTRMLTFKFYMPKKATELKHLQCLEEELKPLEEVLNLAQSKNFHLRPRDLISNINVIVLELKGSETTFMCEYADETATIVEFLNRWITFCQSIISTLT

percent reduction of binding with Ro-26-4550, 10,000 U/ml IL-2 [1]	percent reduction of binding with Ro-26-4550 (10 mM [sic]), 1,000 U/ml IL-2 [2]	Substance	% reduction of IL-2:CD25 binding at 10 μM (Methods; printed as 10 mM in Results) (IL-2)
–	–	Ro-26-4550 [R26]	62 % reduction of IL-2:CD25 binding at 10 µM (Methods; printed as 10 mM in Results)
44%	62%	recombinant human IL-2 (Proleukin) (from UniProt P60568 21-153) (ligand)	–
